Molecular target: T1, ErdR (CrbR), 6His-ErdR (Pseudomonas putida KT2440) (UniProt Q88MD8)
T1 sequence: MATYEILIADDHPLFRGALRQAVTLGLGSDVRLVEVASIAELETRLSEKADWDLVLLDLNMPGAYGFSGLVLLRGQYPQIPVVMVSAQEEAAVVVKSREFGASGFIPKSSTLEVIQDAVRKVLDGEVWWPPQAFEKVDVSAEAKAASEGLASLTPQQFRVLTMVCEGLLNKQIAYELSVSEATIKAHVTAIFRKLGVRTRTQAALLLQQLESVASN
Assay: EMSA
Settings: 10 mM Tris-HCl pH 8, 2 mM MgCl2, 1 mM DTT, 10% glycerol, 12 ng/uL sheared salmon sperm DNA, 2 mM acetyl phosphate when needed; 2.5 ng DNA in 10 uL, 20 min at …

| Sequence | binding | binding signal |
| --- | --- | --- |
| CGCGAACGGGTCATCACTTTGTTACGCAATCGGTAAAACACCGTTGCATCTAAGACTAAGGTCGTCTGGTTGGCGTCCATCGGCAGCATAAAGTAAGGGTGTGGGTTCCATCCCGTATCTGTGCTGCTAGGACAAAAACA (double strand) [yjcH (actP-I) promoter] | binds |  |
| TAGGCGTCCTTTTTGCTCATGAAACTGACCGTATCGCTATGCCGAACTATATATATCTATATATAGGTACCGGCCATGTTGTTCTCTGCCTCCATGGTCGGCTTGCGGCGGGGTGGTGCCCATTGGACGTAAGTCTATGA (double strand) [pp_0354 promoter] | binds | binds |
| AATCGCCTTGCCGTTGCTGGCGAGGTGAATTTTATGGCGCTGGCCAAGGCCGAAACAGTGGGTGTTTTGATAAAGTGTTTTGACAGAATCTGTAACAATCCTGTGGCAAACCCCTCGTTTTTTCGTCGGCAAGGCTGTAA (double strand) [acsA-I (1) promoter] | no binding |  |
| AGCAACGGCAAGGCGATTAACAACTGGTAACAGCCCCCACGAAGGCAAGCGTTAATCTCCATCTAATCCCGATAGTTAAAACTAGCAATACTCGCGGCGCCATAAGCGCCGCGTGCCCCCTCACGACCTTAGACAGGTAA (double strand) [acsA-I (2) promoter] | no binding |  |

From publication PMC8402216
